Test results from US20130064834A1 (published 2013).

B1: H1M300N (antibody, V domains shown)
VH: EMQLVESGGGLVQPGGSLRLSCAASGFTFSSHWMKWVRQAPGKGLEWVANINQDGSEKYYVDSVKGRFTISRDNAKNSLFLQMNSLRAEDTAVYYCARDIVLMVYDMDYYYYGMDVWGQGTTVTVSS
VL: not shown
notes: Fully human version made in CHO cells
B2: H1H316P (antibody, V domains shown)
VH: EVQLVESGGGLVQPGGSLRLSCAASGFTFNNYAMNWVRQAPGKGLDWVSTISGSGGTTNYADSVKGRFIISRDSSKHTLYLQMNSLRAEDTAVYYCAKDSNWGNFDLWGRGTLVTVSS
VL: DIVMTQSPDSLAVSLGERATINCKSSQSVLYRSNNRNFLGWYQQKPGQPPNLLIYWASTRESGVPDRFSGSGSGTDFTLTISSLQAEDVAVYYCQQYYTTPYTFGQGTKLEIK
notes: Fully human mAb made in CHO cells; also called mAb316P

Legend:
Human PCSK9-myc-myc-his [1] = target: T1, Human PCSK9-myc-myc-his (human, UniProt Q8NBP7 31-692); assay: SPR, mAb amine-coupled, 37C, pH 7.4
T1 construct: also called hPCSK9-mmh; hPCSK9
Source text: (§1) Briefly, mAbs were immobilized onto BIACORE™ CM5 sensor chips via amine coupling.

[2] = target: T2, cynomolgus monkey (Macaca fascicularis) PCSK9, myc-myc-his tagged (cynomolgus monkey (Macaca fascicularis), UniProt A8T662 31-692 (Macaca nemestrina entry), limits assumed); assay: SPR, mAb amine-coupled, 37C, pH 7.4
T2 construct: also called mfPCSK9-mmh; mfPCSK9
Source text: as §1

hPCSK9(D374Y)-mmh [3] = target: T3, hPCSK9(D374Y)-mmh (human, UniProt Q8NBP7 31-692); assay: SPR, mAb amine-coupled, 37C, pH 7.4
T3 construct: also called hPCSK(D374Y)-mmh
Source text: as §1

Human PCSK9-myc-myc-his [4] = target: T1, Human PCSK9-myc-myc-his; assay: competition ELISA vs EGF-A-hFc, pH 5.5
Procedure: (§2) Briefly, hLDLR-ecto, hLDLR EGF-A-hFc or hLDLR EGF-AB-hFc, each at 2 μg/ml, was coated on a 96-well plate in PBS buffer overnight at 4° C., and nonspecific binding sites blocked with BSA. […] The equilibrated sample solutions were transferred to receptor or receptor fragment coated plates.

Human PCSK9-myc-myc-his [5] = target: T1, Human PCSK9-myc-myc-his; assay: competition ELISA vs hLDLR-ecto, pH 7.2
Procedure: as §2

hPCSK9(D374Y)-mmh [6] = target: T3, hPCSK9(D374Y)-mmh; assay: competition ELISA vs EGF-A-hFc, pH 5.5
Procedure: as §2

[7] = target: T2, cynomolgus monkey (Macaca fascicularis) …; assay: SPR, mAb amine-coupled, 25C, pH 5.5
Source text: as §1

hPCSK9(D374Y)-mmh [8] = target: T3, hPCSK9(D374Y)-mmh; assay: SPR, mAb amine-coupled, 25C, pH 5.5
Source text: as §1

Human PCSK9-myc-myc-his [9] = target: T1, Human PCSK9-myc-myc-his; assay: ELISA, mAb coated, variant 0-5 nM
Procedure: (§3) Anti-PCSK9 mAbs were coated on a 96-well plate overnight at 4° C.

hPCSK9(E366K) = target: T4, hPCSK9(E366K) (human, UniProt Q8NBP7 31-692); assay: ELISA, mAb coated, variant 0-5 nM
T4 construct: mmh-tagged variant hPCSK9
Procedure: as §3

hPCSK9(E197R) = target: T5, hPCSK9(E197R) (human, UniProt Q8NBP7 31-692); assay: ELISA, mAb coated, variant 0-5 nM
T5 construct: mmh-tagged variant hPCSK9
Procedure: as §3

hPCSK9(A341R) = target: T6, hPCSK9(A341R) (human, UniProt Q8NBP7 31-692); assay: ELISA, mAb coated, variant 0-5 nM
T6 construct: mmh-tagged variant hPCSK9
Procedure: as §3

hPCSK9(R194E) = target: T7, hPCSK9(R194E) (human, UniProt Q8NBP7 31-692); assay: ELISA, mAb coated, variant 0-5 nM
T7 construct: mmh-tagged variant hPCSK9
Procedure: as §3

hPCSK9(P70A, S147F) = hPCSK9(P70A, S147F) (human, UniProt Q8NBP7 31-692); assay: ELISA, mAb coated, variant 0-5 nM
Procedure: as §3

hPCSK9(V380M) = target: T8, hPCSK9(V380M) (human, UniProt Q8NBP7 31-692); assay: ELISA, mAb coated, variant 0-5 nM
T8 construct: mmh-tagged variant hPCSK9
Procedure: as §3

hPCSK9(S147F) = target: T9, hPCSK9(S147F) (human, UniProt Q8NBP7 31-692); assay: ELISA, mAb coated, variant 0-5 nM
T9 construct: mmh-tagged variant hPCSK9
Procedure: as §3

hPCSK9(D192R) = target: T10, hPCSK9(D192R) (human, UniProt Q8NBP7 31-692); assay: ELISA, mAb coated, variant 0-5 nM
T10 construct: mmh-tagged variant hPCSK9
Procedure: as §3

hPCSK9(R357H) = target: T11, hPCSK9(R357H) (human, UniProt Q8NBP7 31-692); assay: ELISA, mAb coated, variant 0-5 nM
T11 construct: mmh-tagged variant hPCSK9
Procedure: as §3

hPCSK9(T162R) = target: T12, hPCSK9(T162R) (human, UniProt Q8NBP7 31-692); assay: ELISA, mAb coated, variant 0-5 nM
T12 construct: mmh-tagged variant hPCSK9
Procedure: as §3

hPCSK9(E159R) = target: T13, hPCSK9(E159R) (human, UniProt Q8NBP7 31-692); assay: ELISA, mAb coated, variant 0-5 nM
T13 construct: mmh-tagged variant hPCSK9
Procedure: as §3

hPCSK9(S127R) = target: T14, hPCSK9(S127R) (human, UniProt Q8NBP7 31-692); assay: ELISA, mAb coated, variant 0-5 nM
T14 construct: mmh-tagged variant hPCSK9
Procedure: as §3

hPCSK9(D129G) = target: T15, hPCSK9(D129G) (human, UniProt Q8NBP7 31-692); assay: ELISA, mAb coated, variant 0-5 nM
T15 construct: mmh-tagged variant hPCSK9
Procedure: as §3

hPCSK9(D238R) = target: T16, hPCSK9(D238R) (human, UniProt Q8NBP7 31-692); assay: ELISA, mAb coated, variant 0-5 nM
T16 construct: mmh-tagged variant hPCSK9
Procedure: as §3

hPCSK9(R215H) = target: T17, hPCSK9(R215H) (human, UniProt Q8NBP7 31-692); assay: ELISA, mAb coated, variant 0-5 nM
T17 construct: mmh-tagged variant hPCSK9
Procedure: as §3

hPCSK9(R237E) = target: T18, hPCSK9(R237E) (human, UniProt Q8NBP7 31-692); assay: ELISA, mAb coated, variant 0-5 nM
T18 construct: mmh-tagged variant hPCSK9
Procedure: as §3

hPCSK9(P70A) = hPCSK9(P70A) (human, UniProt Q8NBP7 31-692); assay: ELISA, mAb coated, variant 0-5 nM
Procedure: as §3

hPCSK9(F216L) = target: T19, hPCSK9(F216L) (human, UniProt Q8NBP7 31-692); assay: ELISA, mAb coated, variant 0-5 nM
T19 construct: mmh-tagged variant hPCSK9
Procedure: as §3

hPCSK9(E366K, V380M) = target: T20, hPCSK9(E366K, V380M) (human, UniProt Q8NBP7 31-692); assay: ELISA, mAb coated, variant 0-5 nM
T20 construct: mmh-tagged variant hPCSK9
Procedure: as §3

hPCSK9(S153R) = target: T21, hPCSK9(S153R) (human, UniProt Q8NBP7 31-692); assay: ELISA, mAb coated, variant 0-5 nM
T21 construct: mmh-tagged variant hPCSK9
Procedure: as §3

hPCSK9(R215E) = target: T22, hPCSK9(R215E) (human, UniProt Q8NBP7 31-692); assay: ELISA, mAb coated, variant 0-5 nM
T22 construct: mmh-tagged variant hPCSK9
Procedure: as §3

hPCSK9(D343R) = target: T23, hPCSK9(D343R) (human, UniProt Q8NBP7 31-692); assay: ELISA, mAb coated, variant 0-5 nM
T23 construct: mmh-tagged variant hPCSK9
Procedure: as §3

T2 sequence (A8T662 31-692 limits assumed): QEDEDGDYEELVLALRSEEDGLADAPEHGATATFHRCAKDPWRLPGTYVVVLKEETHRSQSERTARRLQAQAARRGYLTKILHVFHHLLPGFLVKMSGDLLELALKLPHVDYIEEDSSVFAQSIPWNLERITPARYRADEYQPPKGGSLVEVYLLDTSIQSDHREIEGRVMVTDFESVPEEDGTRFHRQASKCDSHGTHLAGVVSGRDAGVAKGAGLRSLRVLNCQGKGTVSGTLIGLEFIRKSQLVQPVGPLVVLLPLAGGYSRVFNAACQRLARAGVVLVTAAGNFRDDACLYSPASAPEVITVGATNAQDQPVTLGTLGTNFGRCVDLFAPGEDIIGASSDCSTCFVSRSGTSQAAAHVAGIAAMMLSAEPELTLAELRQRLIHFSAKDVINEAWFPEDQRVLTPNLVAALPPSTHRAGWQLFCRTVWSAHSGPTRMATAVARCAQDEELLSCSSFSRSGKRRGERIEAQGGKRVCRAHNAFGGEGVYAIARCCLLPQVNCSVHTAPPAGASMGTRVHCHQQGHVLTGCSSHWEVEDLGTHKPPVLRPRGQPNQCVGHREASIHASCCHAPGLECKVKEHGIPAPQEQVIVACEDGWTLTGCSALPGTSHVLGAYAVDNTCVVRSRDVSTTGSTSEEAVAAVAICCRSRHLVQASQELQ

Row | Binder | Kd (Human PCSK9-myc-myc-his [1]) [nM] | T1/2 (Human PCSK9-myc-myc-his [1]) [min] | Kd [2] [nM] | T1/2 [2] [min] | Kd (hPCSK9(D374Y)-mmh [3]) [nM] | T1/2 (hPCSK9(D374Y)-mmh [3]) [min] | IC50 (Human PCSK9-myc-myc-his [4]) [nM] | IC50 (Human PCSK9-myc-myc-his [5]) [nM] | IC50 (hPCSK9(D374Y)-mmh [6]) [nM] | Kd [7] [nM] | T1/2 [7] [min] | Kd (hPCSK9(D374Y)-mmh [8]) [nM] | T1/2 (hPCSK9(D374Y)-mmh [8]) [min] | OD (Human PCSK9-myc-myc-his [9]) [od] | OD (hPCSK9(E366K)) [od] | OD (hPCSK9(E197R)) [od] | OD (hPCSK9(A341R)) [od] | OD (hPCSK9(R194E)) [od] | OD (hPCSK9(P70A, S147F)) [od] | OD (hPCSK9(V380M)) [od] | also measured
1 | B1 | 2.47 | 20 | 4.81 | 8 | 2.61 | 14 | 0.538 | 0.144 | 3.46 | 38.5 | 0.4 | 9.03 | 3 | > 1.5 | 0.7 to 1.5 | > 1.5 | > 1.5 | > 1.5 | > 1.5 | > 1.5 | OD (hPCSK9(S147F)): > 1.5 od; OD (hPCSK9(D192R)): > 1.5 od; OD (hPCSK9(R357H)): > 1.5 od; OD (hPCSK9(T162R)): > 1.5 od; OD (hPCSK9(E159R)): > 1.5 od; OD (hPCSK9(S127R)): > 1.5 od; OD (hPCSK9(D129G)): > 1.5 od; OD (hPCSK9(D238R)): > 1.5 od; OD (hPCSK9(R215H)): > 1.5 od; OD (hPCSK9(R237E)): > 1.5 od; OD (hPCSK9(P70A)): > 1.5 od; OD (hPCSK9(F216L)): > 1.5 od; OD (hPCSK9(E366K, V380M)): 0.7 to 1.5 od; OD (hPCSK9(S153R)): > 1.5 od; OD (hPCSK9(R215E)): > 1.5 od; OD (hPCSK9(D343R)): > 1.5 od
2 | B2 | 4 | 9 | 3.77 | 11 | 6.66 | 4 | < 0.125 | < 0.125 | 1.12 | 0.008 | 23 | 0.166 | 13 | > 1.5 | > 1.5 | > 1.5 | > 1.5 | > 1.5 | > 1.5 | > 1.5 | OD (hPCSK9(S147F)): > 1.5 od; OD (hPCSK9(D192R)): > 1.5 od; OD (hPCSK9(R357H)): > 1.5 od; OD (hPCSK9(T162R)): > 1.5 od; OD (hPCSK9(E159R)): > 1.5 od; OD (hPCSK9(S127R)): > 1.5 od; OD (hPCSK9(D129G)): > 1.5 od; OD (hPCSK9(D238R)): < 0.7 od; OD (hPCSK9(R215H)): > 1.5 od; OD (hPCSK9(R237E)): > 1.5 od; OD (hPCSK9(P70A)): > 1.5 od; OD (hPCSK9(F216L)): > 1.5 od; OD (hPCSK9(E366K, V380M)): > 1.5 od; OD (hPCSK9(S153R)): > 1.5 od; OD (hPCSK9(R215E)): > 1.5 od; OD (hPCSK9(D343R)): > 1.5 od
